What is called EC50 (read off the curve) is the midpoint of the concentration-response curve. For orientation: Kd means a measure of binding affinity in units of concentration. One may read the koff as a measure of how fast the partners let go of each other. Broadly, the kon is the second-order rate constant of association.

Assay [1] has as its target T1, human B7H4, full length, on cells (human, UniProt Q7Z7D3 25-282).
T1 construct: Uniprot Q7Z7D3; Used for transfected HEK cells and for the B7H4-expressing human tumor cell lines (endogenous B7H4); also called VTCN1
T1 sequence: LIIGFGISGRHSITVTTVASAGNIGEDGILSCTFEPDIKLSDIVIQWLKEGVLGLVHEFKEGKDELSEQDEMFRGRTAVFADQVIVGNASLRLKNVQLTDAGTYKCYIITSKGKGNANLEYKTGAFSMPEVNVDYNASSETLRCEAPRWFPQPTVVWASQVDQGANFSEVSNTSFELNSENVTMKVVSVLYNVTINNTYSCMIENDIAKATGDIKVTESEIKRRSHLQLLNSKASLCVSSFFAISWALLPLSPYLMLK
The experiment in a line: flow cytometry, HEK-293F cells transfected with human B7H4 [panel Human B7H4]. On the procedure: (§1) Cells (3×10⁴ cells/well) were incubated in polystyrene 96-well round-bottom plates (Greiner bio-one, cat. no. 650180) with serial dilutions of antibodies (ranging from 0.000458 to 30 μg/mL in 4-fold dilution steps) in 100 μL PBS/0.1% BSA/0.02% azide (staining buffer) at 4° C. for 30 min. Experiments were performed in technical duplicate. After washing twice in staining buffer, cells were incubated in 50 μL secondary antibody at 4° C. for 30 min. As a secondary antibody, R-Phycoerythrin (PE)-conjugated goat-anti-human IgG F(ab′)₂ (1:500 in FACS buffer; Jackson ImmunoResearch Laboratories, Inc., West Grove, PA, cat. no. 109-116-098), was used. Cells were washed twice in staining buffer, re-suspended in 30 μL FACS buffer containing Topro-3 (1:10,000 dilution) and analyzed on an iQue Screener (Intellicyt Corporation, USA). Binding curves were analyzed using non-linear regression (sigmoidal dose-response with variable slope) using GraphPad Prism V7.02 software (GraphPad Software, San Diego, CA, USA).

The target of assay [2] is T1, human B7H4, full length, on cells. The experiment in a line: flow cytometry on MDA-MB-468 tumor cells [panel MDA-MB-468]. The method, then: as §1
(§2) Binding was analyzed by flow cytometry as described above.
Background: In flow cytometry, cells or beads pass a laser one at a time.

Assay [3] shares this target. The experiment in a line: flow cytometry on MDA-MB-468 tumor cells [MDA-MB-468 left panel]. The method, then:
as §1, §2

Assay [4] concerns the target T2, dog (Canis familiaris) B7H4, full length, on HEK-293F cells (dog, UniProt Q7Z7D3 25-282 (human entry)).
T2 construct: Uniprot F1P8R9; also called dog B7H4
T2 chain: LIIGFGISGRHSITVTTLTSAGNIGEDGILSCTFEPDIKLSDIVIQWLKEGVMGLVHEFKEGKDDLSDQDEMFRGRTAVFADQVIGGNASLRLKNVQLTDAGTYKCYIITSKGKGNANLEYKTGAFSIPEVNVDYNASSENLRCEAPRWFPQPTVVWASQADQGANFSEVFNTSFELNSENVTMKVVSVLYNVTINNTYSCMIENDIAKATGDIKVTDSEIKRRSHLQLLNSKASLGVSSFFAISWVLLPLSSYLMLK
In words: flow cytometry, transiently transfected HEK-293F cells.

Assay [5] concerns the target T3, rabbit (Oryctolagus cuniculus) B7H4, full length, on HEK-293F cells (rabbit, UniProt Q7Z7D3 25-282 (human entry)).
T3 construct: Uniprot G1TQE8; also called rabbit B7H4
T3 chain: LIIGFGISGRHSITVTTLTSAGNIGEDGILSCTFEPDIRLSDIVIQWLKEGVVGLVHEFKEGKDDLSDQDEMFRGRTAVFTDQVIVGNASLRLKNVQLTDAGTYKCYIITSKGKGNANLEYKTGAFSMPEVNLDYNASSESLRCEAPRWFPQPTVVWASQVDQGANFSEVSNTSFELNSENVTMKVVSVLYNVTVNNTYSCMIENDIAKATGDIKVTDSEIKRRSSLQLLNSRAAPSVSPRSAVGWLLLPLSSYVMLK
The description is as above.

Assay [6] deals with T4, human recombinant His tagged B7H4 protein (Sino Biological cat. no. 10738-H08H) (human, UniProt Q7Z7D3 29-258).
T4 construct: Bought protein; theoretical mass 26.8 kDa; also called human B7H4; human B7H4 extracellular domain
T4 sequence: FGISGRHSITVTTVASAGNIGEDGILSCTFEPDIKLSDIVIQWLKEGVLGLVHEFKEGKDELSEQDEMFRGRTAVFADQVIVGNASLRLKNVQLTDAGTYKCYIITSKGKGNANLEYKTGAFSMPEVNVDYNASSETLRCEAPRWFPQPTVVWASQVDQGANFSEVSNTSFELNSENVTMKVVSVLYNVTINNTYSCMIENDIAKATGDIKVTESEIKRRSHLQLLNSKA
In words: BLI (Octet HTX); antibody on anti-human IgG Fc capture sensor, human B7H4 ECD-His in solution; 2nd experiment. The method, then:
Target binding affinity of B7H4 antibodies was determined by label-free biolayer interferometry (BLI) on an Octet HTX instrument (FortéBio). Experiments were carried out while shaking at 1,000 RPM at 30° C. […] Anti-Human IgG Fc Capture (AHC) biosensors (FortéBio, cat. no. 18-5060) were pre-conditioned by exposure to 10 mM glycine (Sigma-Aldrich, cat. no. 15527) buffer pH 1.7 for 5 s, followed by neutralization in Sample Diluent (FortéBio, cat. no. 18-1048) for 5 s; both steps were repeated 2 times. Next, AHC sensors were loaded with antibody (1 μg/mL in Sample diluent) for 600 s. […] The theoretical molecular mass of human B7H4 and mouse B7H4 (as ECD-His tagged molecules) based on their amino acid sequences (26.8 kDa and 26.6 kDa respectively) were used for calculations. For each antibody a reference sensor was used, which was incubated with Sample Diluent instead of antigen. AHC sensors were regenerated by exposure to 10 mM glycine buffer pH 1.7 for 5 s, followed by neutralization in Sample Diluent for 5 s; both steps were repeated twice. Subsequently sensors were loaded again with antibody for the next cycle of kinetics measurements.
Data were acquired using Data Acquisition Software v9.0.0.49d (FortéBio) and analyzed with Data Analysis Software v9.0.0.12 (FortéBio). Data traces were corrected per antibody by subtraction of the reference sensor. The Y-axis was aligned to the last 10 s of the baseline, Interstep Correction alignment to dissociation and Savitzky-Golay filtering were applied. Data traces with a response<0.05 nm were excluded from analysis. The data was fitted with the 1:1 Global Full fit model using a window of interest for the association and dissociation times set at 300 s and 200 s respectively.
(Biolayer interferometry detects binding as a change in optical thickness at a sensor tip.)

Assay [7] has as its target T1, human B7H4, full length, on cells. In words: flow cytometry on SK-BR3 tumor cells [panel SK-BR3 cells]. On the procedure:
as §1, §2

B1: IgG1-B7H4-C1-N52S-FEAR (antibody, V domains shown)
VH: QVQLQQWGAGLLKPSETLSLTCAVYGGSFSGYYWSWIRQPPGKGLEWIGEISHSGSTNYNPSLKSRVTISIDTSKNQFSLKLTSVTAADTAVFYCARGLFNWNFDSWGQGTLVTVSS
VL: DIQMTQSPSSLSASVGDRVTITCRASQGIRNDLGWYQQKPGKAPKRLIYGASSLQSGVPSRFSGSGSGTEFTLTISSLQPEDFATYYCLQHNSYPRTFGQGTTVEIKR
notes: Full length human IgG1 with L234F, L235E, D265A, K409R (FEAR) heavy chain constant region and kappa light chain; bivalent, monospecific; also called IgG1-B7H4-C1-052S-FEAR
In the case of B1, the 50% effective concentration (EC50 (read off the curve)) in assay [1] was ~0.05 µg/mL; in assay [2], ~1 µg/mL; in assay [3], ~1 µg/mL.

B2: IgG1-B7H4-C5-FEAR (antibody, V domains shown)
VH: QLQLQESGPGLVKPSETLSLTCTVSGGSIKSGSYYWGWIRQPPGKGLEWIGNIYYSGSTYYNPSLRSRVTISVDTSKNQFSLKLSSVTAADTAVYYCAREGSYPNQFDPWGQGTLVTVSS
VL: EIVMTQSPATLSVSPGERATLSCRASQSVSSNLAWYQQKPGQAPRLLIYGASTRATGIPARFSGSGSGTEFTLTISSLQSEDFAVYYCQQYHSFPFTFGGGTKVEIKR
notes: Full length IgG1 FEAR, kappa; variable domains from US20190085080A1
Turning to B2, the binding result in assay [4] is given as “binds”. In addition, the binding result in assay [5] is on record as “binds”. Moreover, in assay [6], the Kd amounted to 9.9 nM, the koff is 0.0025 s⁻¹ and the on-rate constant (kon) amounted to 250000 M⁻¹ s⁻¹. Moreover, in assay [3], the “EC50 (read off the curve)” value is ~0.2 µg/mL.

B3: bsIgG1-huCD3-H101G-FEALxB7H4-C1-N52S-FEAR (bispecific antibody)
heavy 1: not shown
light 1: not shown
heavy 2: QVQLQQWGAGLLKPSETLSLTCAVYGGSFSGYYWSWIRQPPGKGLEWIGEISHSGSTNYNPSLKSRVTISIDTSKNQFSLKLTSVTAADTAVFYCARGLFNWNFDSWGQGTLVTVSSASTKGPSVFPLAPSSKSTSGGTAALGCLVKDYFPEPVTVSWNSGALTSGVHTFPAVLQSSGLYSLSSVVTVPSSSLGTQTYICNVNHKPSNTKVDKRVEPKSCDKTHTCPPCPAPEFEGGPSVFLFPPKPKDTLMISRTPEVTCVVVAVSHEDPEVKFNWYVDGVEVHNAKTKPREEQYNSTYRVVSVLTVLHQDWLNGKEYKCKVSNKALPAPIEKTISKAKGQPREPQVYTLPPSREEMTKNQVSLTCLVKGFYPSDIAVEWESNGQPENNYKTTPPVLDSDGSFFLYSRLTVDKSRWQQGNVFSCSVMHEALHNHYTQKSLSLSPGK
light 2: DIQMTQSPSSLSASVGDRVTITCRASQGIRNDLGWYQQKPGKAPKRLIYGASSLQSGVPSRFSGSGSGTEFTLTISSLQPEDFATYYCLQHNSYPRTFGQGTTVEIKRTVAAPSVFIFPPSDEQLKSGTASVVCLLNNFYPREAKVQWKVDNALQSGNSQESVTEQDSKDSTYSLSSTLTLSKADYEKHKVYACEVTHQGLSSPVTKSFNRGEC
notes: also called bslgG1-huCD3-H101G-FEALxB7H4-C1-N52S-FEAR; BslgG1-huCD3-H101G-FEALxB7H4-C1-N52S-FEAR
In the case of B3, the concentration giving a half-maximal response (EC50 (read off the curve)) in assay [7] is ~1 µg/mL.

These data come from patent US20240383982A1 (Genmab, published 2024).
